Results as given in FireProtDB (doi:10.1093/protein/7.9.1089).
Values joined by “and” are separate entries in the source; they are usually repeats but may differ in a detail not shown here. Equal values may be shown once.

B1: Ribonuclease, P00648 (parent)
chain: MMKMEGIALKKRLSWISVCLLVLVSAAGMLFSTAAKTETSSHKAHTEAQVINTFDGVADYLQTYHKLPDNYITKSEAQALGWVASKGNLADVAPGKSIGGDIFSNREGKLPGKSGRTWREADINYTSGFRNSDRILYSSDWLIYKTTDHYQTFTKIR

Variants of: B1
Conditions: Bacillus amyloliquefaciens, pH 4.4, Thermal, DSC, Sodium acetate/Acetic acid 6.08 mM/13.92 mM/, reversible: yes (>95%), structure 1BNI, whole UniProt chain shown; for ddG of mutation (higher = less stable) / heat capacity change of unfolding / unfolding free energy: 25 °C

Variant | ddG of mutation (higher = less stable) | heat capacity change of unfolding [kcal/mol/K] | unfolding free energy | Tm | change of melting temperature, mutant - wild type (higher = more stable) | unfolding enthalpy (calorimetric) | unfolding enthalpy (van 't Hoff)
I135V | 1.47 kcal/mol | 1.6 | 7.22 kcal/mol | 48.1 °C | -3.37 °C | 119 kcal/mol | 125 kcal/mol
S138A | 1.38 kcal/mol and 1.16 kcal/mol | 1.6 | 7.31 kcal/mol and 7.53 kcal/mol | 46.7 °C | -4.81 °C and -4.8 °C | 126 kcal/mol and 129 kcal/mol | 116 kcal/mol and 115 kcal/mol
R116M | 2.86 kcal/mol | 1.6 | 5.8 kcal/mol | 45.9 °C | -5.77 °C | 106 kcal/mol | 118 kcal/mol
I98V | 1.86 kcal/mol | 1.6 | 6.83 kcal/mol | 47 °C | -4.53 °C | 118 kcal/mol | 114 kcal/mol
D55A | 0.69 kcal/mol | 1.6 | 7.97 kcal/mol | 49.7 °C | -1.91 °C | 124 kcal/mol | 127 kcal/mol
T63R | -0.2 kcal/mol | 1.6 | 8.86 kcal/mol | 53 °C | 1.33 °C | 126 kcal/mol | 130 kcal/mol
R130Q | 1.58 kcal/mol | 1.6 | 7.08 kcal/mol | 48.3 °C | -3.29 °C | 117 kcal/mol | 122 kcal/mol
D59G | 0.78 kcal/mol | 1.6 | 7.88 kcal/mol | 49.7 °C | -1.95 °C | 123 kcal/mol | 124 kcal/mol
T73G | 2.08 kcal/mol | 1.6 | 6.58 kcal/mol | 47.6 °C | -4.06 °C | 112 kcal/mol | 118 kcal/mol
S139A | 2.83 kcal/mol | 1.6 | 5.83 kcal/mol | 44.5 °C | -7.13 °C | 111 kcal/mol | 110 kcal/mol
D101N | 2.46 kcal/mol and 2.66 kcal/mol | 1.6 | 6.2 kcal/mol and 6 kcal/mol | 44.6 °C and 44.1 °C | -7.06 °C and -7.49 °C | 117 kcal/mol and 115 kcal/mol | 113 kcal/mol and 116 kcal/mol
D69M | 0.27 kcal/mol | 1.6 | 8.39 kcal/mol | 50.1 °C | -1.57 °C | 129 kcal/mol | 128 kcal/mol
I143V | 1.18 kcal/mol and 1.17 kcal/mol | 1.6 | 7.51 kcal/mol and 7.52 kcal/mol | 49.2 °C | -2.29 °C and -2.3 °C | 120 kcal/mol and 112 kcal/mol | 125 kcal/mol and 123 kcal/mol
